Reference: publication PMC10170137 (Nature Communications, 2023)
Changes are numbered by the printed parent chain. Names and notes keep the numbering of the source.

T1: EcProA (Escherichia coli, UniProt P07004)
T1 construct: gene proA
T1 sequence (P07004 1-417): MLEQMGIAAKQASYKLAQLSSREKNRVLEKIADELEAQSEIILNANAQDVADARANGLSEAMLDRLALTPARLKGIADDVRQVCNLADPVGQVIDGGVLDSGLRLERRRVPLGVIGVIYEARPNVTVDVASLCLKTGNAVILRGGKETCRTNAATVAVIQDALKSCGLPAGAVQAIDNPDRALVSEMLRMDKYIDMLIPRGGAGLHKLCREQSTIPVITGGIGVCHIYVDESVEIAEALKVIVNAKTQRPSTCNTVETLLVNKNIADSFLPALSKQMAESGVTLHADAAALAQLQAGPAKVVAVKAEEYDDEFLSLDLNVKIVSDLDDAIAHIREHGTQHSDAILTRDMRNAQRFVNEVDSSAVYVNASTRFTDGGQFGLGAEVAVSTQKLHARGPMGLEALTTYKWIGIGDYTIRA

T2: EcArgC (Escherichia coli, UniProt P11446)
T2 construct: gene argC
T2 sequence (P11446 1-334): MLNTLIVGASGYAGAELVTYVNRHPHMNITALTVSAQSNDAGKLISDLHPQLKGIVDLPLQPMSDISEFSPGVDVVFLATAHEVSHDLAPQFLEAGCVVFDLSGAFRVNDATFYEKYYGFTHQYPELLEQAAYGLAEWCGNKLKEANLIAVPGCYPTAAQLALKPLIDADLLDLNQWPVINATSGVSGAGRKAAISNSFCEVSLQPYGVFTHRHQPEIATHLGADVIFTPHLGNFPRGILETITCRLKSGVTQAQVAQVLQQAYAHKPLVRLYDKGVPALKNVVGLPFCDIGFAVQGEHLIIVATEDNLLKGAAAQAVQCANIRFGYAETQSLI

T3: EcASD (Escherichia coli, UniProt P0A9Q9)
T3 construct: gene asd
T3 sequence (P0A9Q9 1-367): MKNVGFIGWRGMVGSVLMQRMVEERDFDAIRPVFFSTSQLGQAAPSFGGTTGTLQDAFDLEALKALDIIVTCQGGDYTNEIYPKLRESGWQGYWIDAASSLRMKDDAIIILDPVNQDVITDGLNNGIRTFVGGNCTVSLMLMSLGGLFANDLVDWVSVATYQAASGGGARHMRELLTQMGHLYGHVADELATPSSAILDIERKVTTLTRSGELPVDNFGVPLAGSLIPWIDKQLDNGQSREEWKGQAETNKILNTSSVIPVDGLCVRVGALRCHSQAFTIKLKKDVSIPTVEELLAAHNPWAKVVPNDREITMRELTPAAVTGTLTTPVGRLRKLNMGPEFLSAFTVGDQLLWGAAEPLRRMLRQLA

T4: DaArgC (Denitrovibrio acetiphilus, UniProt D4H3H4)
T4 construct: gene argC; dimer
T4 sequence (D4H3H4 1-334): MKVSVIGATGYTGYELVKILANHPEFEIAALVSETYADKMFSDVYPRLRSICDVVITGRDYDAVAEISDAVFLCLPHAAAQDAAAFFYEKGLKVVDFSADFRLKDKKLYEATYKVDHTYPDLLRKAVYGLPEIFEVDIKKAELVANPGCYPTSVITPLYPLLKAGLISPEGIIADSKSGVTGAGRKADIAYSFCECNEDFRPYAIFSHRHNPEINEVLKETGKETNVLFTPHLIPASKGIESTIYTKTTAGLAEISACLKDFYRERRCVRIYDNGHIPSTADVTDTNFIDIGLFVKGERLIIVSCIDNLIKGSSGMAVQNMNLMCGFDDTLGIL

B1: Denitrovibrio acetiphilus N-acetyl-γ-glutamyl phosphate reductase (DaArgC), wild type (enzyme)
chain: T4 sequence (D4H3H4 1-334)
notes: N-acetyl-γ-glutamyl phosphate reductase (ArgC) of Denitrovibrio acetiphilus; also called WT DaArgC; Denitrovibrio acetiphilus N-acetyl-γ-glutamyl phosphate dehydrogenase; source: E. coli BL21 (DE3), purified (Ni-Sepharose HisTrap FF, Superdex 200 SEC)
B2: DaArgC (Denitrovibrio acetiphilus DSM 12809; G182V) (protein)
chain: T4 sequence (D4H3H4 1-334) with G182V
notes: dimer
B3: DaArgC (Denitrovibrio acetiphilus DSM 12809; G182V/S178V) (protein)
chain: T4 sequence (D4H3H4 1-334) with S178V, G182V
notes: dimer
B4: DaArgC (Denitrovibrio acetiphilus DSM 12809; G182V/L233I/S178V) (protein)
chain: T4 sequence (D4H3H4 1-334) with S178V, G182V, L233I
notes: dimer
B5: DaArgC3, triple substitution variant (G182V, S178V, L233I) of Denitrovibrio acetiphilus N-acetyl-γ-glutamyl phosphate reductase (enzyme)
chain: T4 sequence (D4H3H4 1-334) with S178V, G182V, L233I
notes: N-acetyl-γ-glutamyl phosphate reductase (ArgC) of Denitrovibrio acetiphilus with G182V, S178V and L233I; Found by iterative saturation mutagenesis of DaArgC; also called formyl phosphate reductase variant; source: E. coli BL21 (DE3), purified (Ni-Sepharose HisTrap FF, Superdex 200 SEC)

How the values were obtained:
[1] = molecular target: T1, EcProA; assay: Nash assay of formaldehyde; coupled to EcAckA; assay type: biochemical; conditions: formyl phosphate made in situ by 2 µM EcAckA from 50 mM ammonium formate and 5 mM ATP; 250 µM NAD(P)H, 1 mM CoA, 10 mM MgCl2, MOPS-KOH pH 7.0, 30 °C
[2] = molecular target: T2, EcArgC; assay: Nash assay of formaldehyde; coupled to EcAckA; assay type: biochemical; conditions: formyl phosphate made in situ by 2 µM EcAckA from 50 mM ammonium formate and 5 mM ATP; 250 µM NAD(P)H, 1 mM CoA, 10 mM MgCl2, MOPS-KOH pH 7.0, 30 °C
[3] = molecular target: T3, EcASD; assay: Nash assay of formaldehyde; coupled to EcAckA; assay type: biochemical; conditions: formyl phosphate made in situ by 2 µM EcAckA from 50 mM ammonium formate and 5 mM ATP; 250 µM NAD(P)H, 1 mM CoA, 10 mM MgCl2, MOPS-KOH pH 7.0, 30 °C
[4] = molecular target: T5, EcGapA (Escherichia coli, UniProt P0A9B2); assay: Nash assay of formaldehyde; coupled to EcAckA; assay type: biochemical; conditions: formyl phosphate made in situ by 2 µM EcAckA from 50 mM ammonium formate and 5 mM ATP; 250 µM NAD(P)H, 1 mM CoA, 10 mM MgCl2, MOPS-KOH pH 7.0, 30 °C
T5 construct: gene gapA

[5] = molecular target: T6, DaArgC (Denitrovibrio acetiphilus, UniProt D4H3H4, G182V/L233I/S178V); assay: Nash assay of formaldehyde, inhibition of formyl phosphate reductase activity; coupled to EcAckA; assay type: biochemical; conditions: read-out: N-acetyl-γ-glutamate / IC50
T6 construct: gene argC; dimer
Source text: (§1) Nash assay of formaldehyde, inhibition of formyl phosphate reductase activity; coupled to EcAckA on DaArgC

[6] = molecular target: T4, DaArgC; assay: as above; assay type: biochemical; conditions: read-out: N-acetyl-γ-glutamate / IC50
Source text: as §1

[7] = substrate: NC(=O)C1=CN([C@@H]2O[C@H](COP(=O)(O)OP(=O)(O)OC[C@H]3O[C@@H](n4cnc5c(N)ncnc54)[C@H](OP(=O)(O)O)[C@@H]3O)[C@@H](O)[C@H]2O)C=CC1; assay: Nash assay of formaldehyde, fluorescence; coupled to EcAckA; assay type: biochemical, Denitrovibrio acetiphilus; conditions: formyl phosphate made in situ by 10 µM EcAckA from 500 mM ammonium formate and 5 mM ATP, 10 mM MgCl2, MOPS-KOH pH 7.0, 30 °C, varied: cofactor
Source text: (§2) Nash assay of formaldehyde, fluorescence; coupled to EcAckA on DaArgC

[8] = molecular target: the molecule itself; assay: SEC; HiLoad 16/600 Superdex 200 pg in SEC buffer (75 mM KCl, 25 mM HEPES-KOH pH 7.8), loaded straight after Ni affinity purification, before crystallisation
[9] = substrate: NC(=O)C1=CN([C@@H]2O[C@H](COP(=O)(O)OP(=O)(O)OC[C@H]3O[C@@H](n4cnc5c(N)ncnc54)[C@H](O)[C@@H]3O)[C@@H](O)[C@H]2O)C=CC1; assay: Nash assay of formaldehyde, fluorescence; coupled to EcAckA; assay type: biochemical, Denitrovibrio acetiphilus; conditions: formyl phosphate made in situ by 10 µM EcAckA from 250 mM ammonium formate and 5 mM ATP, 10 mM MgCl2, MOPS-KOH pH 7.0, 30 °C, varied: cofactor
Source text: as §2

[10] = substrate: O=COP(=O)(O)O; assay: Nash assay of formaldehyde, initial slopes, synthetic formyl phosphate; assay type: biochemical, Denitrovibrio acetiphilus; conditions: 1 mM NADPH, 10 mM MgCl2, MOPS pH 7.0, 30 °C, freshly synthesized crude formyl phosphate
Source text: Nash assay of formaldehyde, initial slopes, synthetic formyl phosphate on […]

T6 sequence (D4H3H4 entry or part of it S178V/G182V/L233I): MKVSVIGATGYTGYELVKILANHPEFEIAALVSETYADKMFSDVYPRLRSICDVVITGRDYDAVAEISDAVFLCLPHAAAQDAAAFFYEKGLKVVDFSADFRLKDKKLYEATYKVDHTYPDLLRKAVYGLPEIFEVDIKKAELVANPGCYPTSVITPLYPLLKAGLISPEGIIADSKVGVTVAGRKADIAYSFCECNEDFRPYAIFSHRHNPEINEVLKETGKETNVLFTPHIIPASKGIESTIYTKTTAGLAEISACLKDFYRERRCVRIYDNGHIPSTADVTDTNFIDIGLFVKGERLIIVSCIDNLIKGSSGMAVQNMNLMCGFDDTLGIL
T5 sequence (P0A9B2 2-331): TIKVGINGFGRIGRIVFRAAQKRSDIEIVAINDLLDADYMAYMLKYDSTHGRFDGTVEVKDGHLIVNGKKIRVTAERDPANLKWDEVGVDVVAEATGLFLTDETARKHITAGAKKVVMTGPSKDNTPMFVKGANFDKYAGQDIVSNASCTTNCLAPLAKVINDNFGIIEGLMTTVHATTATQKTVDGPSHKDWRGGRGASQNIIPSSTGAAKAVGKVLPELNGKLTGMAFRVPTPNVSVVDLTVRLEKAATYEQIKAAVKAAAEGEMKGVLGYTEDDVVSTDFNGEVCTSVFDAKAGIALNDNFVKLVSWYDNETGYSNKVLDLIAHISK

Row | Molecule | Km [7] [µM] | kcat [7] [s⁻¹] | kcat/Km [7] [M⁻¹ s⁻¹] | Km [9] [µM] | kcat [9] [s⁻¹] | kcat/Km [9] [M⁻¹ s⁻¹] | Km [10] [µM] | kcat [10] [s⁻¹] | kcat/Km [10] [M⁻¹ s⁻¹] | further results
1 | O=COP(=O)(O)O [formyl phosphate] |  |  |  |  |  |  |  |  |  | Nash assay of formaldehyde; coupled to EcAckA [1]: (EcASD, EcArgC, EcGapA, EcProA), we detected FPR activity in all cases; Nash assay of formaldehyde; coupled to EcAckA [2]: EcArgC and EcGapA performed best under the chosen conditions; Nash assay of formaldehyde; coupled to EcAckA [3]: (EcASD, EcArgC, EcGapA, EcProA), we detected FPR activity in all cases; Nash assay of formaldehyde; coupled to EcAckA [4]: EcArgC and EcGapA performed best under the chosen conditions
2 | CC(=O)N[C@@H](CCC(=O)O)C(=O)O [N-acetyl-γ-glutamate] |  |  |  |  |  |  |  |  |  | IC50 [5]: 24.6 ± 7.9 mM; IC50 [6]: 5.1 ± 1 mM
3 | B1 | 160 ± 20 | 0.66 ± 0.03 | 4100 |  |  |  |  |  |  | binding result [8]: binds
4 | B2 | 40 ± 10 | 0.14 ± 0.02 | 3500 | 280 ± 50 | 0.08 ± 0.00 | 280 | 31000 ± 7000 | 0.11 ± 0.01 | 2.4 | 
5 | B3 | 60 ± 20 | 0.26 ± 0.03 | 4300 | 300 ± 40 | 0.12 ± 0.00 | 400 | 38000 ± 9000 | 0.17 ± 0.02 | 3.1 | 
6 | B4 | 50 ± 10 | 0.23 ± 0.02 | 4600 | 340 ± 50 | 0.09 ± 0.00 | 260 | 18000 ± 7000 | 0.12 ± 0.02 | 4.6 | 
7 | B5 |  |  |  |  |  |  |  |  |  | binding result [8]: binds
